Article PMC4983199 (Cell, 2016)
Where a chain is given by its changes, count along the chain named.

T1: ZIKV E protein domain III (DIII), strain H/PF/2013 (Zika virus H/PF/2013)
T1 chain: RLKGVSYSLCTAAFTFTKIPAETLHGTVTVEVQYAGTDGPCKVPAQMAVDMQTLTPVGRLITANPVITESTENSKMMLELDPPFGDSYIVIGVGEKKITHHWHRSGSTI

B1: ZV-48 mouse monoclonal antibody (antibody, V domains shown)
VH: QVQLQQPGAELLKPGASVKLSCKASGYSFSNYWMHWVKQRPGQGPEWIGMIHPNSGNTKYNEKFKNKATLTVDKSSSMVYMQLSSLTSEDSAVFYCARLGNDMDYWGQGTSVTVSS
VL: DIVMSQSPSSLAVSVGEKITMSCKSSQSLLYSNNEKNYLAWYQQKPGQSPKLLIYWASARDSGVPDRFTGSGSGTDFTLTISSVKAEDLAVFYCQQYYSYPYTFGGGTKLEIK
B2: ZV-54 mouse monoclonal antibody (antibody, V domains shown)
VH: QVQLQQSGVGLARPGTSVKLSCKASGYSFTTYGISWVTQRPGQGLEWIGVIYPRSNNTYYNERFRGKATLTADKSSSSAYLELRGLTAEDSAVYFCARENYGSVYWGQGTTLTVSS
VL: DIVMTQSQKFMSTSVGDRVTITCKASQSVGTAVAWYHQKPGQSPKLLIYSASNRYTGVPDRFTGSGSGTDFTLTITYMQSEDLADYFCQQFSNYPFTFGGGTKLEIK
B3: ZV-67 mouse monoclonal antibody (antibody, V domains shown)
VH: B2 VH with V2A, V9T, T16A, S28T, T31S, P41A, N56G, R63K, L81M
VL: B2 VL with T20S, S28N, H37Q, T76S, Y77N, N93S, F96Y
B4: ZV-2 mouse monoclonal antibody (antibody, V domains shown)
VH: QVQLQESGAELMKPGASVKLSCKTSGYTFIGYWIEWLKQRPGHGLEWVGEIFPGSGRTKYNEKFKGRATFTADTSSNMAYMQLSSLTTEDSAIYYCARYYYGSYYALDYWGQGTSVTVSS
VL: DIVMTQSPSSLSVSAGEKVTLSCKSSQSLLHSGNQKNYLAWYQQKPGQAPKLLIYGASTRESGVPDRFTGSGSGTDFTLTISSVQAEDLAVYYCQNDHSYPLTFGAGTKLELK

How the values were obtained:
[1] = molecular target: T1, ZIKV E protein domain III (DIII), …; assay: cell-based or functional assay
[2] = molecular target: ZIKV E protein (recombinant, ectodomain, strain H/PF/2013) (Zika virus H/PF/2013, UniProt A0A024B7W1); assay: ELISA
Chain of ZIKV E protein (recombinant, ectodomain, strain H/PF/2013) (A0A024B7W1 whole entry, looked up, the tested form may be a part): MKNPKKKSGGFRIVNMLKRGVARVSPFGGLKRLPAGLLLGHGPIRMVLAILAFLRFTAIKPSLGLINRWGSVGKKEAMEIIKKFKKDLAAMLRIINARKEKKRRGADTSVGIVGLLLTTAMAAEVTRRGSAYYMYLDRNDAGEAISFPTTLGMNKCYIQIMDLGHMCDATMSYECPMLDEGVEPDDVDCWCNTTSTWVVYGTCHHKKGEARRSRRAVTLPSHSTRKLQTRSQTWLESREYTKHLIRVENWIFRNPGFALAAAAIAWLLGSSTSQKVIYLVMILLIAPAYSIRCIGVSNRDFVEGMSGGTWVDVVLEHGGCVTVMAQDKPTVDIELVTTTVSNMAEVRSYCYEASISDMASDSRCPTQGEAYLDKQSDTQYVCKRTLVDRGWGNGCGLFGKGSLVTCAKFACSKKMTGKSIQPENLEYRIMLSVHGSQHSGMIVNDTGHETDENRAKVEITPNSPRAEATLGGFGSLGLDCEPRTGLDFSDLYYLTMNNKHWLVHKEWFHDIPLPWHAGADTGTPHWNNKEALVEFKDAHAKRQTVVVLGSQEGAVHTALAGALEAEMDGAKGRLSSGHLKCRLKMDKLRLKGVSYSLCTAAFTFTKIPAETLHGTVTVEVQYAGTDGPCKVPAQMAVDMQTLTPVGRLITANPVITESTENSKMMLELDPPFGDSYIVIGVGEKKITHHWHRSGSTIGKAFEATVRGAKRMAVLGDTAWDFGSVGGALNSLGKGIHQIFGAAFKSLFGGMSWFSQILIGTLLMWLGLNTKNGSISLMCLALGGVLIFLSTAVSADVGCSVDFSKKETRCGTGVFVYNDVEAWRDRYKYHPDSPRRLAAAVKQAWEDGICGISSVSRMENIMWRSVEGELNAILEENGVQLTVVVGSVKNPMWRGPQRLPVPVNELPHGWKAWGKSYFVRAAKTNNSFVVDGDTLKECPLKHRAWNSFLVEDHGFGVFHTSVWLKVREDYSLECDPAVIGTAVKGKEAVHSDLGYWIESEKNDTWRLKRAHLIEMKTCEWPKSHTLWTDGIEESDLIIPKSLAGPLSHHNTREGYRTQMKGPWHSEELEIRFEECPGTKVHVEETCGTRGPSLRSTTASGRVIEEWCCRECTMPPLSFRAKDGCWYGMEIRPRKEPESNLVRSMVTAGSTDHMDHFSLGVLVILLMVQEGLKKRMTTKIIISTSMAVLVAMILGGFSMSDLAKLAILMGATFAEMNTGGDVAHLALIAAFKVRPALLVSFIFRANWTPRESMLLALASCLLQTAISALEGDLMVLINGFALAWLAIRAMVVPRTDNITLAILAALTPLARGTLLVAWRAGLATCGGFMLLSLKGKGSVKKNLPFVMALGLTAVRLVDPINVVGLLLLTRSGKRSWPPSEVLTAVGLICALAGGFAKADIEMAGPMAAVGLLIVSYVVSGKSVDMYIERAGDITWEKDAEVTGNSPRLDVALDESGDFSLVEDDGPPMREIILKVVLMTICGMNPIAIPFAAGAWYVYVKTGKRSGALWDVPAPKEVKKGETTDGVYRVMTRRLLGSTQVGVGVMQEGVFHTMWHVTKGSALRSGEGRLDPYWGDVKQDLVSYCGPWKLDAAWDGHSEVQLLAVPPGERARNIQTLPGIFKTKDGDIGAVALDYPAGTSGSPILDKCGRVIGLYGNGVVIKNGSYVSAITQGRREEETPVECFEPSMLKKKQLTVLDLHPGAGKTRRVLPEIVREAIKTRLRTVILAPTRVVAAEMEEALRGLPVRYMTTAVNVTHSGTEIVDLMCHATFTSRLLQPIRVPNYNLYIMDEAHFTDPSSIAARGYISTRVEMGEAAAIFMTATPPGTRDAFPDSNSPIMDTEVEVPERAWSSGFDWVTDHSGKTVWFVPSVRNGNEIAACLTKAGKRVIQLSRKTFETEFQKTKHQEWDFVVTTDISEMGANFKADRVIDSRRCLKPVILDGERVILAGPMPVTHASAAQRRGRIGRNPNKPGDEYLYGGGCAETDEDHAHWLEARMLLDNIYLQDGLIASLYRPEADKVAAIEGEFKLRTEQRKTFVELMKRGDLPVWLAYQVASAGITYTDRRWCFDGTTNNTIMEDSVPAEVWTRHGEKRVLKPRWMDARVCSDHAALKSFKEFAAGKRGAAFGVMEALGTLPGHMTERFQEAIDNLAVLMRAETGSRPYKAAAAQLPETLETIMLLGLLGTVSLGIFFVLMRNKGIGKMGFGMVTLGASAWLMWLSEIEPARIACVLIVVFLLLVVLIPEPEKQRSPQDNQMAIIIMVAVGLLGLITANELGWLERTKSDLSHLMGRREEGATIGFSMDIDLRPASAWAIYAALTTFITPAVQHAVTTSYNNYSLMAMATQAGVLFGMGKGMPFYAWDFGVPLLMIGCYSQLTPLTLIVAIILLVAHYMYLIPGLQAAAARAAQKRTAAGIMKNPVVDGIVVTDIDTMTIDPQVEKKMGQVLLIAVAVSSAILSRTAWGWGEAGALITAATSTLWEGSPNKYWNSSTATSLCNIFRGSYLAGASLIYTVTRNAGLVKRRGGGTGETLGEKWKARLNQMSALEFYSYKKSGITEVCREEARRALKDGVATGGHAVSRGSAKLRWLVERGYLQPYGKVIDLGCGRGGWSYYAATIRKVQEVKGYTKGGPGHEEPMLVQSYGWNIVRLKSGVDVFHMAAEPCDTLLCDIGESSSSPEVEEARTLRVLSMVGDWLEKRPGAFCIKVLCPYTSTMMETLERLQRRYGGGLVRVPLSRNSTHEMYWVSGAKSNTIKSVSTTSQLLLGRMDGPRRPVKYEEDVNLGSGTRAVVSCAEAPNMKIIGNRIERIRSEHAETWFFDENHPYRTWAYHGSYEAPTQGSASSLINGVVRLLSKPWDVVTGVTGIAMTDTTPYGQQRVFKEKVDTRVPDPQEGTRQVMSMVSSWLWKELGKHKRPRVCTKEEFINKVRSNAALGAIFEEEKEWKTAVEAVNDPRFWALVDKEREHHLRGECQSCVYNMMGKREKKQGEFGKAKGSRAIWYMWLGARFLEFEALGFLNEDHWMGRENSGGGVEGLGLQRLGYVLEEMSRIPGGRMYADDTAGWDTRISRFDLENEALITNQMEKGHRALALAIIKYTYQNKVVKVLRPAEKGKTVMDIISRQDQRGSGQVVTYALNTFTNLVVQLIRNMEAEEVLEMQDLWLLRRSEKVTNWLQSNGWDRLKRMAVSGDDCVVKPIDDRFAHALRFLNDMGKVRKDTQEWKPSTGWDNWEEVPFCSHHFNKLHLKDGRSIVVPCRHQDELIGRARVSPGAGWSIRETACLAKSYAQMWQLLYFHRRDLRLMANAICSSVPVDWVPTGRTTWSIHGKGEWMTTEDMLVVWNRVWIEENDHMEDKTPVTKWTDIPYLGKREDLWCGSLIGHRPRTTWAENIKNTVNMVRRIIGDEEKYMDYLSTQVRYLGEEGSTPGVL

[3] = molecular target: T1, ZIKV E protein domain III (DIII), …; assay: BLI
[4] = molecular target: ZIKV subviral particles (SVPs, prM-E), strain H/PF/2013 (Zika virus H/PF/2013, UniProt A0A024B7W1); assay: ELISA

Row | Binder | FRNT50, focus reduction neutralization of ZIKV H/PF/2013 on Vero cells [1] [ng/mL] | binding result [2] | Kd [3] [nM] | t1/2 [3] [min] | binding result [4]
1 | B1 | 485 | binds | 35 ± 0.8 | 3.2 | 
2 | B2 | 87 | binds | 7.9 ± 0.2 | 33 | binds
3 | B3 | 143 |  | 8.8 ± 1.7 | 13.8 | 
4 | B4 |  |  | 266 ± 42 | 0.3 | 
